The record followed here is publication PMC2734569, “Functional mapping of the fission yeast DNA polymerase δ B-subunit Cdc1 by site-directed and random pentapeptide insertion mutagenesis” (BMC Molecular Biology, 2009).

Holding throughout (details): partners not purified
One assay concerns the target T1, Cdc1-J16 (Schizosaccharomyces pombe, UniProt P87324 1-462, Val-GlyGlyThrProVal-Asp).
T1 construct: Cdc1, S. pombe, with a pentapeptide inserted after residue 160; source: yeast two-hybrid fusion, in S. cerevisiae CTY10-5d
T1 sequence (looked up): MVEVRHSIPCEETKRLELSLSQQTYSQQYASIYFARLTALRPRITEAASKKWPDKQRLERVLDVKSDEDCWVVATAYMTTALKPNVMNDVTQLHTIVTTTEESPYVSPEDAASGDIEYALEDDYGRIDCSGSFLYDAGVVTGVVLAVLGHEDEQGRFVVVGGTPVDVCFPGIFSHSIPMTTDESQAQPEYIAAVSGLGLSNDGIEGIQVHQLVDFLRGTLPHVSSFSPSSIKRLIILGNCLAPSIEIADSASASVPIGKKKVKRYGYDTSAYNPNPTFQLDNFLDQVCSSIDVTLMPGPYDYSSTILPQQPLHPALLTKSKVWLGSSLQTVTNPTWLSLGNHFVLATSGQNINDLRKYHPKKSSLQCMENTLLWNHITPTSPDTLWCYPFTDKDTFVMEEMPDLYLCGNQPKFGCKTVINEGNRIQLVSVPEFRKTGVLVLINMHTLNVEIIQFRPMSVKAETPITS
Kind of assay: two-hybrid; LexA-Cdc1 bait (pBTM116 or pBTM116BN) with Gal4 activation domain-Cdc27 prey (pGAD2F-Cdc27) in S. cerevisiae CTY10-5d; ONPG liquid culture beta-galactosidase assay, mean of triplicates, as percent of wild-type Cdc1.

For another assay, the target named is T2, Cdc1-A9 (Schizosaccharomyces pombe, UniProt P87324 1-462, Pro292Ala | Gly293Ala).
T2 construct: Cdc1, S. pombe, double point mutant (A1 and A2 combined); source: yeast two-hybrid fusion, in S. cerevisiae CTY10-5d
T2 sequence (looked up): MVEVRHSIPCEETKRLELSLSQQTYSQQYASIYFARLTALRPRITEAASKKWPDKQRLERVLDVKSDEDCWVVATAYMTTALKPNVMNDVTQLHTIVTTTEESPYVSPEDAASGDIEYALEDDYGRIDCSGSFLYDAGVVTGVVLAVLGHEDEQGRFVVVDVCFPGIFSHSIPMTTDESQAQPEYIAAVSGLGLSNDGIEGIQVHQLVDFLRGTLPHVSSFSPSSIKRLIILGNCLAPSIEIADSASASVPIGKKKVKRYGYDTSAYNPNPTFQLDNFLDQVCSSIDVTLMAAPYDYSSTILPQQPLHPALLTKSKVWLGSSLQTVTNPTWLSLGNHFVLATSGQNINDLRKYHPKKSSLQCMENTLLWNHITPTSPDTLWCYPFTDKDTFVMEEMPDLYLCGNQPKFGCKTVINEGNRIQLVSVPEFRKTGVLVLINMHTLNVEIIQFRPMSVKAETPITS
The description is as above.

The target of a further assay is T3, Cdc1-J2 (Schizosaccharomyces pombe, UniProt P87324 1-462, Tyr-ArgGlyThrProTyr-Ser).
T3 construct: Cdc1, S. pombe, with a pentapeptide inserted after residue 25; also called J18; J20; source: yeast two-hybrid fusion, in S. cerevisiae CTY10-5d
T3 sequence (looked up): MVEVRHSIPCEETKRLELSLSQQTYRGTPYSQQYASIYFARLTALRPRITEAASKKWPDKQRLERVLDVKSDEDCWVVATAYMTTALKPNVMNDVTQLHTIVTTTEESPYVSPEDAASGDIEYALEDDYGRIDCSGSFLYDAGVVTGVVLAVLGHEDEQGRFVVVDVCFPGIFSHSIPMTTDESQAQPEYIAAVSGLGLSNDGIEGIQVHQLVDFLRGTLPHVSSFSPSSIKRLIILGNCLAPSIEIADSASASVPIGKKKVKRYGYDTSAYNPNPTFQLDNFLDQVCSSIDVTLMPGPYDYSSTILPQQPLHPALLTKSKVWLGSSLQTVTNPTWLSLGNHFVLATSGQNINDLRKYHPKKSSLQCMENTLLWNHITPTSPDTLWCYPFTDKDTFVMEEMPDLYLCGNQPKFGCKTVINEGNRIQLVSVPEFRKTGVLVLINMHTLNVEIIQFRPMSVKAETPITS
Kind of assay: two-hybrid; LexA-Cdc1 bait (pBTM116 or pBTM116BN) with Gal4-Pol3 prey and co-expressed c-myc-tagged Cdc27 (pAA-Cdc27) in S. cerevisiae CTY10-5d; ONPG liquid culture beta-galactosidase assay, mean of triplicates, as percent of wild-type Cdc1.

Another assay concerns the target T4, Cdc1-A6 (Schizosaccharomyces pombe, UniProt P87324 1-462, Pro329Ala).
T4 construct: Cdc1, S. pombe, point mutant; source: yeast two-hybrid fusion, in S. cerevisiae CTY10-5d
T4 sequence (looked up): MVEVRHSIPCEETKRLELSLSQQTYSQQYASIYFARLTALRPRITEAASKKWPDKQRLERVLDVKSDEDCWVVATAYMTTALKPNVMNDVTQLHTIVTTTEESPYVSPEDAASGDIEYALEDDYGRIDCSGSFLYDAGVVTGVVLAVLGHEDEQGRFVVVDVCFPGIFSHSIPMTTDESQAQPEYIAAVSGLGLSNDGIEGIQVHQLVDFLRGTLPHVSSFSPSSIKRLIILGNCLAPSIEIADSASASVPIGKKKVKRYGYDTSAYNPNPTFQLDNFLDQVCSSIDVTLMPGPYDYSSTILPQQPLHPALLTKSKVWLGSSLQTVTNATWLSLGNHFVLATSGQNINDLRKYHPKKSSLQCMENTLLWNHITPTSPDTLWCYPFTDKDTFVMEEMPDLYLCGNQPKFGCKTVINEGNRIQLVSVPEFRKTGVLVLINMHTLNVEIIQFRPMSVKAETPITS
The description is as above.

B1: Cdc27 (fission yeast DNA polymerase delta C-subunit) (natural protein, Schizosaccharomyces pombe, UniProt P30261 1-372, looked up)
chain: MEEWRNFLDIKVINESSLVTVDNLSLQLDISSEKAQEYLNMFYQGNDFLYPIYLIHGQPIDDEINLEIDEESQPISNFPVLQYILCDKSSLQEKQSRLKSGYKTVIFALSSAPLSDFDELLPAVYEIREKDVLYKKEDADKYGFIFNENSVPRVLKKAPSTHSPQLSVPSKTSTIDKTDTRSTEKTKGKDIFSNARNQKGNSSRKNKKAPLENHKEKEPLLPKEEKLSEQAKRERDDLKNIMQLEDESVSTTSVHDSEDDNLDSNNFQLEIGTEAKSAAPDEPQEIIKSVSGGKRRGKRKVKKYATTKDEEGFLVTKEEEVWESFSEDENISTGTSNVVRNKPTTVNIATKKKNTAQSKPQQKSIMSFFGKK
notes: DNA polymerase delta C-subunit Cdc27, S. pombe; prey plasmid pGAD2F-Cdc27; also called pGAD2F-Cdc27; source: yeast two-hybrid fusion, in S. cerevisiae CTY10-5d
Turning to B1, the “two-hybrid beta-galactosidase activity, % of wild-type Cdc1” value in the assay with Cdc1-J16 is under 1%; with Cdc1-A9, 58%.

B2: Pol3 (fission yeast DNA polymerase delta catalytic subunit) (natural protein, Schizosaccharomyces pombe, UniProt P30316 1-1086, looked up)
chain: MTDRSSNEGVVLNKENYPFPRRNGSIHGEITDVKRRRLSERNGYGDKKGSSSKEKTSSFEDELAEYASQLDQDEIKSSKDQQWQRPALPAINPEKDDIYFQQIDSEEFTEGSVPSIRLFGVTDNGNSILVHVVGFLPYFYVKAPVGFRPEMLERFTQDLDATCNGGVIDHCIIEMKENLYGFQGNEKSPFIKIFTTNPRILSRARNVFERGEFNFEELFPVGVGVTTFESNTQYLLRFMIDCDVVGMNWIHLPASKYQFRYQNRVSNCQIEAWINYKDLISLPAEGQWSKMAPLRIMSFDIECAGRKGVFPDPSIDPVIQIASIVTQYGDSTPFVRNVFCVDTCSQIVGTQVYEFQNQAEMLSSWSKFVRDVDPDVLIGYNICNFDIPYLLDRAKSLRIHNFPLLGRIHNFFSVAKETTFSSKAYGTRESKTTSIPGRLQLDMLQVMQRDFKLRSYSLNAVCSQFLGEQKEDVHYSIITDLQNGTADSRRRLAIYCLKDAYLPQRLMDKLMCFVNYTEMARVTGVPFNFLLARGQQIKVISQLFRKALQHDLVVPNIRVNGTDEQYEGATVIEPIKGYYDTPIATLDFSSLYPSIMQAHNLCYTTLLDSNTAELLKLKQDVDYSVTPNGDYFVKPHVRKGLLPIILADLLNARKKAKADLKKETDPFKKAVLDGRQLALKVSANSVYGFTGATNGRLPCLAISSSVTSYGRQMIEKTKDVVEKRYRIENGYSHDAVVIYGDTDSVMVKFGVKTLPEAMKLGEEAANYVSDQFPNPIKLEFEKVYFPYLLISKKRYAGLFWTRTDTYDKMDSKGIETVRRDNCPLVSYVIDTALRKMLIDQDVEGAQLFTKKVISDLLQNKIDMSQLVITKALSKTDYAAKMAHVELAERMRKRDAGSAPAIGDRVAYVIIKGAQGDQFYMRSEDPIYVLENNIPIDAKYYLENQLSKPLLRIFEPILGEKASSLLHGDHTRTISMAAPSVGGIMKFAVKVETCLGCKAPIKKGKTALCENCLNRSAELYQRQVAQVNDLEVRFARLWTQCQRCQGSMHQDVICTSRDCPIFYMRIAEHKKLQQSVDLLKRFDEMSW
notes: DNA polymerase delta catalytic subunit Pol3, S. pombe; prey plasmid named pACT-Pol3 in the results and pGAD2F-Pol3 in the methods; also called Gal4-Pol3; pACT-Pol3; source: yeast two-hybrid fusion, in S. cerevisiae CTY10-5d
B2: the “two-hybrid beta-galactosidase activity, % of wild-type Cdc1” value in the assay with Cdc1-J2 is 46%; in the assay with Cdc1-A6 it was under 1%.
